Assay results: US20190201542A1 (AbbVie / Abbott, published 2019)

T1: human DLL3 (human, UniProt Q9NYJ7 27-492, limits assumed)
T1 construct: also called hDLL3; DLL3 protein
T1 sequence: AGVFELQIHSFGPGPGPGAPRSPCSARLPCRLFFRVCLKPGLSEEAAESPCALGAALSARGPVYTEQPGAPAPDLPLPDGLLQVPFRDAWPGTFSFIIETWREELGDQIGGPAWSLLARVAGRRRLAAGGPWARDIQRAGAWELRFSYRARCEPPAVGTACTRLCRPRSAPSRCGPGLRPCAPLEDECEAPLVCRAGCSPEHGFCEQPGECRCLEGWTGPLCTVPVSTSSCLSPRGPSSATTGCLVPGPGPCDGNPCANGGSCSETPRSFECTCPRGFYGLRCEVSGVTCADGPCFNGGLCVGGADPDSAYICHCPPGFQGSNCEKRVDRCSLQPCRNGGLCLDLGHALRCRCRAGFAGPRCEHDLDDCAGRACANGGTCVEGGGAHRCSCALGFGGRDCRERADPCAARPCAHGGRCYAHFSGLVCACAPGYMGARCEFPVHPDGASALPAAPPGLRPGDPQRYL


Target: T1, human DLL3
Experiment: screen on immobilized hDLL3 or h293-hDLL3 cells
Summary of the method: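 Hybridoma supernatants from single cells of mice immunized with human DLL3 were screened after 10 days in culture. Binding by flow cytometry was scored positive when above the control. In the solid-phase ELISA, plates coated with DLL3-His at 0.5 μg/ml were probed with HRP anti-mouse IgG and TMB and read at OD 450.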

Row | Binder | binding result
1 | SC16.103 (antibody, V domains shown, murine mAb) VH: QVTLKESGPGILKPSQTLSLTCSFSGFSLSTSGMGIGWIRQPSGKGLEWLAHIWWDDDKYYNPSLKSQLTISKDSSRNQVFLKITSVDTADTATYYCARRGTAYYFDYWGQGTTLTVSS VL: DIVLTQSPASLAVSLGQRATISCRASKSVSTSGYSYMHWYQQKPGQPPKLLIYLASNLESGVPARFSGSGSGTDFTLNIHPVEEEDAATYYCQHSRELPLTFGAGTKLELK | binds
2 | SC16.62 (antibody, V domains shown, murine mAb) VH: EVMLVESGGDLVKPGGSLKLSCAASGFTFSSYAMSWVRQTPEKRLEWVAYISGGGDHIYYPDSVRGRFTISRDNAKDTLYLQMSSLRSEDTALYDCARVRDWYFDVWGAGTTVTVSS VL: DIKMTQSPSSMYASLGERVTITCKASQDINSFLSWFQRKPGKSPKTLIYRANRLVDGVPSRFTGSGSGQEFSLTISSLEYEDLGIYYCLQYDEFPYTFGGGTKLEIK | binds
3 | SC16.78 (antibody, V domains shown, murine mAb) VH: EVKLVESGGGLVKPGGSLKLSCAASGFTFGRYVMSWVRQTPEKKLEWVASITSGGTTYYPDSVKGRFTISRDNARNILYLQMSSLRSEDTAMYYCARVYYHYDDIFAYWGQGTLVTVSA VL: DIKMTQSPSSMYASLGERVTITCKASQDINSYLSWFQQKPGRSPKTLIYRANRLVDGVPSRFSGSGSGQDYSLTISSLDYEDMGIYYCLQYDEFPFTFGSGTKLEIK | binds
4 | SC16.8 (antibody, V domains shown, murine mAb) VH: QAQLQQSGAELVRPGTSVKVSCKASGYAFTNYLIEWVKQRPGQGLEWIGVINPGTGGTNYNENFKGKATLTADKSSSTAYMQLSSLTSDDSAVYFCARSPYDYHEGAMDYWGQGTSVTVSS VL: EIQMTQSPSSMSASLGDRITITCQATQDIVKNLNWYQQKPGKPPSFLIYYAIELAEGVPSRFSGSGSGSDYSLTISNLESEDFADYYCLQFYEFPFTFGAGTKLELK | binds
5 | SC16.73 (antibody, V domains shown, murine mAb) VH: QVQLQQSGAELMKPGASVKISCKANGYTFSSYWIEWLRQRPGHGLEWIGEILPGSDNSNYNEKFKGKATFTADTSSNTAYMQLSSLTSEESAVYYCTRGLRRDGSYYYVMEHWGQGTSVTVSS VL: DIQMTQSPSSLSASLGERVSLTCRASQDIGYSLNWLQQEPDGTIKRLIYATSSLDSGVPKRFSGSRSGSDYSLTISSLESEDFVDYYCLQYASSPWTFGGGTKLEIK | binds
6 | SC16.88 (antibody, V domains shown, murine mAb) VH: QVQLQQSGAELARPGASVKLSCKASGYTCTSYWMQWVKQRPGQGLEWIGAIYPGDGDTRYTQKFKGKATLTADKSSSTAYMQLSSLASEDSAVYYCARGRRTEAWFAYWGQGTLVTVSA VL: not shown | binds
7 | SC16.72 (antibody, V domains shown, murine mAb) VH: EVQLQQSGPELVKPGASVKMSCKASGYTFTSYVMHWVKQKPGQGLEWIGYINPYNDGTKYNEKFKGKATLTSDKSSSTAYMELSSLTSEDSAVYYCARLRSRAMDYWGQGTSVTVSS VL: ENVLTQSPAIMSASLGEKVTMSCRASSSVNYMSWYQQKSDASPKLWIYYTSNLAPGVPARFSGSGSGNSYSLTISSMEGEDAATYYCQQFTSSPYTFGGGTKLEIK | binds
8 | SC16.7 (antibody, V domains shown, murine mAb) VH: EVQLQQSGPELVKPGASVKISCKASGYSFTGYKMHWVKQSHVKSLEWIGRINPYNGATSYNQNFKDKATLTVDKSSSTAYMDLHSLTSEDSAVYFCARGDYRYDWFAYWGQGTLVTVSA VL: NIMMTQSPSSLAVSAGEKVTMSCKSSQSVLYSSNQKNYLAWYQQKPGQSPKLLIYWASTRESGVPDRFTGSGSGTDFTLTISTVQVEDLAVYYCHQYLSSWTFGGGTKLEIK | binds
9 | SC16.104 (antibody, V domains shown, murine mAb) VH: QVQLKESGPDLVQPSQTLSLTCTVSGFSLTFYGVHWVRQPPGKGLEWVGTMGWDDKKYYNSALKSRLSISRDTSKNQVFLKLSSLQTEDTAMYYCTRGGTGFDYWGQGTTLTVSS VL: QIVLSQSPAILSASPGEKVTMTCRASSSVSYIHWYRQKPGSSPKPWIYATSNLASGVPARFSGSGSGTSYSLTISRVEAEDAATYYCQQWSSNPPTFGAGTKLELK | binds

More lines, now with the values ahead:

Row | binding result | Binder
10 | binds | SC16.58 (antibody, V domains shown, murine mAb) VH: DVQLVESGGGLVQPGGSRKLSCAASGFTFSSFGMHWVRQAPEKGLEWVAYISSGSSNIYYADTVKGRFTISRDNPKNTLFLQMTSLRSEDTAMYYCARGYYGNYDAMDYWGQGTSVTVSS VL: DIQMTQSPASLSSSVGETVTITCRASENIYSYLAWYQQKQGKSPQLLVYNAKTLAEGVPSRFSGSGSGTQFSLKINSLQPEDFGTYYCQHHYDSPLTFGAGTKLELR
11 | binds | SC16.79 (antibody, V domains shown, murine mAb) VH: EVQLQQSGPELVKPGASVKISCKTSGYTFTEYTMHWVKQSHGKSLEWIGGINPNNGGTSYNQKFKGKATLTVDKSSSTAYMELRSLTSEDSAVYYCARGPAWFAYWGQGTLVTVSA VL: DIVMSQSPSSLAVSAGEKVTMSCKSSQSLLNSRTRKNYLAWYQQKPGQSPKLLIYWASTRESGVPDRFTGSGSGTDFTLTISSVQAEDLAVYYCKQSYNLYTFGGGTKLKIK
12 | binds | SC16.81 (antibody, V domains shown, murine mAb) VH: QVQLKESGPVLVAPSQSLSITCTVSGFSLTSYGVHWVRQPPGKGLEWLGVIWAGGSTNYNSALMSRLSISKDNSKSQVFLKMNSLQTDDTAMYYCAKQGNFYAMDYWGQGTSVTVSS VL: QIVLTQSPAIMSASLGERVTLTCTASSSVSSSYLHWYQQKPGSSPKLWIYSTSNLASGVPTRFSGSGSGTSYSLRISSMEAEDAATYYCHQYNRSPLTFGAGTKLELK
13 | binds | SC16.101 (antibody, V domains shown, murine mAb) VL: QIVLTQSPAIMSASLGERVTMTCTASSSVSSSYLHWYQQKPGSSPKLWIYSTSNLASGVPARFSGSESGTSYSLTISNMEAEDAATYYCHQYHRSPFTFGSGTKLEIK V domain: QVTLKESGPGILQPSQTLSLTCSFSGFSLSTSGMGVGWIRQPSGKGLEWLAHIWWDDVKRYNPALKSRLTISKDASSSQVFLKIASVDTAETATYYCAHILDRAYYFDYWGQGTTLTVTS
14 | binds | SC16.105 (antibody, V domains shown, murine mAb) VH: QVQLQQPGAELVKPGASVKLSCKASGYTFTSYWMHWVKQRPGQGLEWIGVINPSNGRTNYNEKFKSKATLTVDKSSSTAYMQLSSLTSEDSAVYYCARRRELGTLYAMDYWGQGTSVTVSS VL: DIVMTQSHKFMSTSVGDRVSITCKASQDVGTAVAWYQQKPGQSPKLLIYWASIRHTGVPDRFTGSGSGTDFTLTISNVQSEDLADYFCQQYSSYPLTFGAGTKLELK
15 | binds | SC16.80 (antibody, V domains shown, murine mAb) VH: EVQLQQSGPELVKPGGSKKISCKASGYSFTGYSMNWVKQSHGKNLEWIGLINPYSGGTIYNQKFKGKATLTVDKSSSTAYMELLSLTSEDSAVYYCARRSDYPLVYWGQGTLVTVSA VL: ETTVTQSPASLSMAIGEKVTIRCITSTDIDDDMIWYQQKPGEPPKLLISEGNTLRPGVPSRFSSSGYGTDFVFTIENMLSEDVADYYCLKRDDLPYTFGGGTQVEIK
16 | binds | SC16.84 (antibody, V domains shown, murine mAb) VH: EVQLQQSGPELVKPGASMKISCKASGYSFTGYTMNWVKQSHGKNLEWIGLINPYNGGTTYNQKFKGKATLTVDKSSSTAYMELLSLTSEDSAVYYCALGYYGNYRRYFDVWGAGTTVTVSS VL: DIQMTQSPSSLSASLGGKVTITCKASQDIKKYIAWYQHKPGKGPRLLIHYTSTLEPGIPSRFSGSGSGRDYSFSISNLEPEDIATYYCLQYDILWTFGGGTKLEIK
17 | binds | SC16.67 (antibody, V domains shown, murine mAb) VH: EVQLVETGGGLVQPKGSLKLSCAVSAFTFTTYAMNWVRQAPGKGLEWVARIRNKSNNYATYYADSVKDRFTISRDDSQSMLYLQMNNLKIEDTAMYYCVFYYDYVYWGQGTLVTVSA VL: QAVVTQESALTTSPGETVTLTCRSSTGAVTTSNYANWIQEKPDHLFTGLIGGTNNRAPGVPARFSGSLIGDKAALTITGAQTEDEAIYFCGLWYSNHLVFGGGTKLTVL
18 | binds | SC16.65 (antibody, V domains shown, murine mAb) VH: QVTLKESGPGILQPSQTLSLTCSFSGFSLSTSGMGVGWIRQPSGKGLEWLALIWWDDVKRYNPALKSRLTISKDASSSQVFLKIASVDTADTATYYCARIASYDYDVVYAMDYWGQGTSVSVSS VL: QIVLTQSPALMSASPGEKVTMTCSVTSSVSYMYWYQQKPRSSPKPWIYLTSNLASGVPARFSGSGSGTSYSLTISSVEAEDAATYYCQQWRNNPFTFGSGTKVEIK
19 | binds | SC16.63 (antibody, V domains shown, murine mAb) VH: QVQLQQSGTELLRPGASVKISCKATGYTFSSYWMEWVKQRPGHGLEWIGEILPGSGTTQYNEKFKGKATFTADTSSNTAYMHLSSLTSEDSAVYYCARGTNSLWGQGTLVTVSA VL: QIVLTQSPAIMSASPGEKVTMTCSASSSVSYMYWYQQKSGTSPKRWIYDTSKLASGVPARFSGSGSGTSYSLTISSMEAEDAATYYCQQWSSNPYTFGGGTKLEIK
20 | binds | SC16.61 (antibody, V domains shown, murine mAb) VH: EVLLQRSGPDLVKPGASVTIPCKASGYTFTDYNMDWVKQSHGKSLEWIGNINTYNGGTIYNQKFKGKATLTVDKPSSTAYMELRSLTSEDTAVYYCARRLRYGGHYFDYWGQGTALTVSS VL: DIVMTQSTSSLAMSVGQKVTMSCKSSQSLLNSSNQKNYLAWYQQEPGQSPKLLVSFASTRESGVPDRFTGSGSGTDFTLTISGVQAEDLAVYYCQQHYSIPLTFGAGTKLELK
